The target in one data set is Human Thrombin (Homo sapiens, UniProt P00734). The conditions noted are these: fifth round selected peptides; 1 hour incubation +/- Human Thrombin 0.1 unit/ml; anti-FLAG ELISA OD450. As to the method:
The values represent ((OD450 nm reading after incubation with thrombin)/(OD450 nm reading after incubation without thrombin)) expressed as a percentage. 100% indicates complete protection from thrombin cleavage.
Recovered DNA from the fifth round of selection was amplified using PCR, purified and digested with NotI and NcoI. The DNA was then ligated into a similarly digested M13 gpIII phagemid vector and transformed into E. coli XL-1 blue cells, and plated on 2% glucose, 2×TY, 100 μg/ml ampicillin plates. Individual colonies were grown for the production of phage particles as previously described (Odegrip et al Proc. Natl. Acad. Sci USA 101 2806-2810 (2004)). NUNC Maxisorp plates were coated with 100 ng/well of anti-FLAG M2 antibody in PBS overnight at 4° C. ELISA assays were performed with bound phage being incubated for 1 hour in 2% BSA in PBS, +/−Human Thrombin (0.1 unit/ml). The assay was developed with SureBlue TMB peroxidase substrate (Insight Biotechnology, Middlesex, UK) and read at 450 nm.

A further data set deals with T1, trypsin (Bos taurus, UniProt P00760).
T1 construct: purchased SIGMA-Aldrich or Novagen
T1 sequence (P00760 24-246): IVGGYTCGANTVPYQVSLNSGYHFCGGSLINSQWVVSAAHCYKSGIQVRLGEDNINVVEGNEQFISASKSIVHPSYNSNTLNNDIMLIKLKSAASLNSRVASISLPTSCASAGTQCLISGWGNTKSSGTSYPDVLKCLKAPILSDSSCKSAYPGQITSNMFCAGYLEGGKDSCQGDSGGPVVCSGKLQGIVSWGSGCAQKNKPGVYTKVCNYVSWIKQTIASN
The experiment in a line: Incubation with trypsin-agarose, then ELISA against anti-FLAG antibody (trypsin resistance). The data set is classed as in vitro ADME. The conditions noted are these: two hours at 25° C. As to the method: A. Unselected library peptides incubated with trypsin. B. Unselected library peptides incubated without trypsin. C. Round five thrombin selection peptides incubated with trypsin. D. Round five thrombin selection peptides incubated without trypsin.
Trypsin cleaves after R or after K, thus there are two trypsin sites fixed in the FLAG epitope and thrombin substrate sequence. Even partial resistance to trypsin is surprising as no selection for trypsin resistance was performed and the FLAG epitope is susceptible to trypsin cleavage. Such resistance is observed in round five peptides selected for thrombin resistance, but not in the un-selected library peptides (FIG. 3).
(In general: An ELISA detects its analyte on a solid surface through an enzyme-linked reagent.)

Turning to HCVHEPQTKHES [SEQID 029], in the data set with Human Thrombin, the Thrombin resistant entry is reported as “resistant”. In addition, the Trypsin resistant result in the data set with trypsin is “resistant”.

Take HGHSPSDNANTR [SEQID 028]: the Thrombin resistant entry with Human Thrombin was “resistant”. Besides, in the data set with trypsin, the Trypsin resistant entry is “resistant”.

In the case of ITPPDNSHTPDE [SEQID 027], the Thrombin resistant result in the data set with Human Thrombin is listed as “resistant”. Moreover, in the data set with trypsin, the Trypsin resistant entry is “resistant”.

For the sequence PSCPNKQDPTHD [SEQID 030], the Thrombin resistant entry in the data set with Human Thrombin is listed as “resistant”. Also, the Trypsin resistant result with trypsin is recorded as “resistant”.

For the origin of these results see patent publication US20110189164A1, “Peptide Stabilizer Compounds and Screening Method” (Isogenica Ltd, priority 2005, published 2011).
